Changes are numbered by the printed parent chain. Numbers in names are those of the source. Where “and” joins values, the source holds several entries; their conditions need not be identical. Equal entries are not always repeated. Entries after “also recorded” stand apart in the source; their conditions may differ.

Two molecules from patent publication US20240240209A1, “SYNTHESIS OF ENANTIOPURE CIS-A-IRONE FROM A RENEWABLE CARBON SOURCE” (Agency for Science, Technology and Research, priority 2021, published 2024) can be followed below.

Series [1] in a line: Stability of pMT7 (native PAGE, pre-incubation at 28° C.). The following applies: incubating or reacting at 28° C. overnight. As to the method:
(28 C) or 4° C. (4 C). […] All the data shown is an average of replicate reaction.
The steady-state kinetic parameters of pMT7 were determined (Table 3). […] While determining the steady-state kinetics of pMT7, it was noticed that the reaction with purified pMT7 stopped at 6 h before significant conversion had taken place (FIG. 15a). Moreover, while using cell extracts containing pMT7, the reaction reached a plateau after 1-day incubation (FIG. 15b). […] Since pMT7 is an hexamer in solution^10, its oligomeric state before and after the reaction was examined. […] (28 C) overnight as compared to 4° C. […] It was further tested if the enzyme was subject to feedback inhibition, as the cofactor product SAH is a potent inhibitor of methyltransferases^12.

Series [2] can be described thus: In vivo cis-α-irone production from glucose/glycerol in strain 2O31 cultures. The following applies: pMT plasmid transformed into strain 2O31; 2 days. It is filed as cell-based, Escherichia coli. The text has this: The advantage of in vivo biotransformation is that microbial cells can regenerate expensive co-factors rendering the scale-up bioprocess more cost-effective. […] Thus, pMT was incorporated into our psi-ionone producing microbe^7,8, to synthesize cis-α-irone from cheap renewable carbon sources (glucose/glycerol) (FIG. 4 and FIG. 19). To achieve high productivity, the psi-ionone production was first optimized by multidimensional heuristic process (MHP)^15, and strain 2O31 was identified to be the highest producer for psi-ionone (FIG. 19b). 2O31 was used as the base strain to probe cis-α-irone production in vivo (Table 5). Moreover, to improve the plasmid stability, auxotrophic strain was used with chemically defined media^1. The plasmid carrying pMT1, pMT7 or pMT10 was transformed into the strain 2O31, and produced less than 0.01, about 2 and about 3 mg/L cis-α-irone respectively in 2 days (FIG. 19d). To further optimize irone production with pMT10, three different culture conditions were tested: no methionine or dodecane added (control); 10 mM methionine added; 10 mM methionine and 20% dodecane added. In the control reaction, approximately 4.8 mg/L or 0.85 mg/L/OD cis-α-irone was produced after 3-day incubation (2O31-pMT10, FIGS. 4c and 4e). […] Lastly, when both methionine and dodecane were added, psi-ionone was accumulated in the organic layer and only ˜0.3 mg/L or ˜0.05 mg/L/OD cis-α-irone was produced (2O31-pMT10, FIGS. 4c, d and e). […] The limited methylation efficiency might be due to insufficient cofactor or SAH inhibition. […] In fact, the total amount of psi-ionone and cis-α-irone decreased (FIG. 4c, and d). As SAM biosynthesis is regulated by metJ in E. coli^16,17, the aforementioned six reactions were subsequently examined under metJ deleted genetic background (2O31, ΔmetJ). An increase in cis-α-irone titer to ˜5.7 mg/L was produced by 2O31 ΔmetJ-pMT10 strain with 10 mM methionine supplementation (FIG. 4c). An increase in specific cis-α-irone titer to ˜1.2 mg/L/OD was produced by 2O31 ΔmetJ-pMT10r strain without methionine supplementation (FIG. 4d). […]

The nature of series [3]: Purified pMT7/pMT10 reaction with auxiliary enzymes mtn and mtaD. The following applies: for cis-α-irone amount relative to pMT7 reaction alone: purified enzyme. The format is biochemical. The text has this: (§1) All the purified enzyme reactions were done in triplicates.
An alternative strategy to reduce SAH inhibition is to introduce auxiliary enzymes that degrade SAH12 (FIG. 18a). […] Noteworthy, with mtaD enzyme, cis-α-irone production by pMT10 was improved by ˜2.5 fold as compared to pMT10 reaction alone (FIG. 3c). […] This somewhat agrees with the effect of mutating D135, which abolishes the hydrogen bond interaction between pMT7 and the amine group of the adenine moiety.

Series [4] is described as follows: In vitro biotransformation of psi-ionone to cis-α-irone by cell lysate containing overexpressed pMT10. The following applies: 28° C., 3 days. The format is biochemical. As for the experimental part:
as §1
With the positive effect of mtaD, in vitro biotransformation by using cell lysate containing overexpressed pMT10 and mtaD was explored. To challenge the enzyme, 10 mg/L (0.05 mM), 100 mg/L (0.5 mM) or 1000 mg/L (5 mM) of psi-ionone was supplemented into the reaction, and 6.4 mg/L (˜0.03 mM), 54 mg/L (˜0.26 mM) and 182 mg/L (˜0.88 mM) of cis-α-irone were produced, respectively after incubating the reaction at 28° C. for 3 days (FIG. 3d).

B1: pMT7: pMT1 with Y200F S182E L273V L180A A202L Y65F (protein)
chain: MPQEARTPQQQVTADEVGDWYDKFGEVYHLTLGESVHCGLWFPPDAPVPQDMELVTMSSQAQDRFTDYLIETLDPKAGQHLLDIGCGTGRTALKAARQRGIAVTGVAVSKEQIAAANRLAAGHGLTERLTFEVADAMRLPYEDESFDCAWAIESLCHMDRAKALGEAWRVLKPGGDLLVAEEVVTEELTEPETALFETLFALNVPPRLGEFFDIVSGAGFHTLSLKDLSANLAMTMNVFALGVYSRRAEFTERFGAEFVDGLLAGLGSAQETVIRKTRFFMATLRKPAV
modifications: Modified from pMT1
notes: pMT1 with Y200F S182E L273V L180A A202L Y65F
B1: in series [1], the stability of enzyme result is given as “remained intact as hexamer; also recorded: stable under the reaction temperature”. Also, in series [2], the cis-α-irone produced result was “about 2 mg/L”.

B2: pMT10: pMT1 with Y200F S182E L273V L180A A202L Y65F C156A T91P (protein)
chain: B1 chain with T91P, C156A
modifications: Modified from pMT1
notes: pMT1 with Y200F S182E L273V L180A A202L Y65F C156A T91P
Consider B2, for which the “cis-α-irone production improvement with mtaD enzyme” value in series [3] (as compared to pMT10 reaction alone) is listed as around 2.5 fold. For the same molecule, the “cis-α-irone amount relative to pMT7 reaction alone” value in series [3] (with mtaD) is on record as around 6.5 fold; in series [3] (without mtaD) it was around 4.5 fold. Besides, the cis-α-irone produced result in series [2] is “about 3 mg/L”; in series [4] (10 mg/L (0.05 mM) psi-ionone), 6.4 mg/L and ~0.03 mM; in series [4] (100 mg/L (0.5 mM) psi-ionone), 54 mg/L and ~0.26 mM.
